Target: T1, Yku80 (S. cerevisiae, UniProt Q04437 1-629)
T1 sequence (looked up): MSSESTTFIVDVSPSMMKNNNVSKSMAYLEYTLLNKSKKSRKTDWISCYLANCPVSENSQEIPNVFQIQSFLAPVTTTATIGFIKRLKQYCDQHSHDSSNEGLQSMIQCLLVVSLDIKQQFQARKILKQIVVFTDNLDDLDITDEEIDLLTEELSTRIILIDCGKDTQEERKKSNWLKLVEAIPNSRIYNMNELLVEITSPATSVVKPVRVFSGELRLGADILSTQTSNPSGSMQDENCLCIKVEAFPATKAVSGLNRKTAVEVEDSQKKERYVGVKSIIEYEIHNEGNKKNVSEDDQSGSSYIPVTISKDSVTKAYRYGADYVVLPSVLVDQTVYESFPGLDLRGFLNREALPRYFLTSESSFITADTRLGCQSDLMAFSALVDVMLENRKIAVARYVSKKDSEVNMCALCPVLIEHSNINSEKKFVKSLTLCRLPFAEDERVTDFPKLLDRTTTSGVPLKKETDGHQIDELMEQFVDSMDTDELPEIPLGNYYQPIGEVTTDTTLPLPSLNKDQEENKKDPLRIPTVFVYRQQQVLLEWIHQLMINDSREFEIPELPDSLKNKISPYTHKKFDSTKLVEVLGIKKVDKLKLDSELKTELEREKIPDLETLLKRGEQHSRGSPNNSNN
Test: cryo-EM structure

- binding result: binds
B1: Yku70 (natural protein, S. cerevisiae, UniProt P32807 1-602, looked up)
chain: MRSVTNAFGNSGELNDQVDETGYRKFDIHEGILFCIELSETMFKESSDLEYKSPLLEILESLDELMSQLVITRPGTAIGCYFYYCNREDAKEGIYELFPLRDINATFMKKLNDLLEDLSSGRISLYDYFMFQQTGSEKQVRLSVLFTFMLDTFLEEIPGQKQLSNKRVFLFTDIDKPQEAQDIDERARLRRLTIDLFDNKVNFATFFIGYADKPFDNEFYSDILQLGSHTNENTGLDSEFDGPSTKPIDAKYIKSRILRKKEVKRIMFQCPLILDEKTNFIVGVKGYTMYTHEKAGVRYKLVYEHEDIRQEAYSKRKFLNPITGEDVTGKTVKVYPYGDLDINLSDSQDQIVMEAYTQKDAFLKIIGFRSSSKSIHYFNNIDKSSFIVPDEAKYEGSIRTLASLLKILRKKDKIAILWGKLKSNSHPSLYTLSPSSVKDYNEGFYLYRVPFLDEIRKFPSLLSYDDGSEHKLDYDNMKKVTQSIMGYFNLRDGYNPSDFKNPLLQKHYKVLHDYLLQIETTFDENETPNTKKDRMMREDDSLRKLYYIRNKILESEKSEDPIIQRLNKYVKIWNMFYKKFNDDNISIKEEKKPFDKKPKFNI

Source: publication doi:10.1101/2024.12.22.629684 (bioRxiv, 2024)
